Data: the Human Domainome abundance scans (Beltran et al. 2025)
± gives the uncertainty stated by the source.

B1: Friend leukemia integration 1 transcription factor, residues 116 to 197; numbered along this chain, Q01543 (parent)
chain: NMTTNERRVIVPADPTLWTQEHVRQWLEWAIKEYSLMEIDTSFFQNMDGKELCKMNKEDFLRATTLYNTEVLLSHLSYLRES

Variants of: B1
Assay: abundance fitness (aPCA) (normalised: wild type 0, dead -1); higher = more abundant; growth selection in yeast, the domain comes from the species named
Conditions: Homo sapiens

| Variant | abundance fitness |
| --- | --- |
| NMTTNYRRVIVPADPTLWTQEHVRQWLEWAIKEYSLMEIDTSFFQNMDGKELCKMNKEDFLRATTLYNTEVLLSHLSYLRES [E6Y] | -0.308 ± 0.21 |
| NMTTNPRRVIVPADPTLWTQEHVRQWLEWAIKEYSLMEIDTSFFQNMDGKELCKMNKEDFLRATTLYNTEVLLSHLSYLRES [E6P] | -0.126 ± 0.091 |
| NMTTNERRSIVPADPTLWTQEHVRQWLEWAIKEYSLMEIDTSFFQNMDGKELCKMNKEDFLRATTLYNTEVLLSHLSYLRES [V9S] | 0.212 ± 0.073 |
| NMTTNERRRIVPADPTLWTQEHVRQWLEWAIKEYSLMEIDTSFFQNMDGKELCKMNKEDFLRATTLYNTEVLLSHLSYLRES [V9R] | 0.172 ± 0.059 |
| NMTTNERRAIVPADPTLWTQEHVRQWLEWAIKEYSLMEIDTSFFQNMDGKELCKMNKEDFLRATTLYNTEVLLSHLSYLRES [V9A] | 0.14 ± 0.075 |
| NMTTNERRYIVPADPTLWTQEHVRQWLEWAIKEYSLMEIDTSFFQNMDGKELCKMNKEDFLRATTLYNTEVLLSHLSYLRES [V9Y] | -0.605 ± 0.46 |
| NMTTNERRMIVPADPTLWTQEHVRQWLEWAIKEYSLMEIDTSFFQNMDGKELCKMNKEDFLRATTLYNTEVLLSHLSYLRES [V9M] | -0.156 ± 0.095 |
| NMTTNERRCIVPADPTLWTQEHVRQWLEWAIKEYSLMEIDTSFFQNMDGKELCKMNKEDFLRATTLYNTEVLLSHLSYLRES [V9C] | 0.046 ± 0.17 |
| NMTTNERRIIVPADPTLWTQEHVRQWLEWAIKEYSLMEIDTSFFQNMDGKELCKMNKEDFLRATTLYNTEVLLSHLSYLRES [V9I] | -0.122 ± 0.12 |
| NMTTNERRDIVPADPTLWTQEHVRQWLEWAIKEYSLMEIDTSFFQNMDGKELCKMNKEDFLRATTLYNTEVLLSHLSYLRES [V9D] | -0.055 ± 0.3 |
| NMTTNERRNIVPADPTLWTQEHVRQWLEWAIKEYSLMEIDTSFFQNMDGKELCKMNKEDFLRATTLYNTEVLLSHLSYLRES [V9N] | 0.18 ± 0.16 |
| NMTTNERRTIVPADPTLWTQEHVRQWLEWAIKEYSLMEIDTSFFQNMDGKELCKMNKEDFLRATTLYNTEVLLSHLSYLRES [V9T] | 0.039 ± 0.098 |
| NMTTNERRKIVPADPTLWTQEHVRQWLEWAIKEYSLMEIDTSFFQNMDGKELCKMNKEDFLRATTLYNTEVLLSHLSYLRES [V9K] | 0.116 ± 0.098 |
| NMTTNERRLIVPADPTLWTQEHVRQWLEWAIKEYSLMEIDTSFFQNMDGKELCKMNKEDFLRATTLYNTEVLLSHLSYLRES [V9L] | -0.045 ± 0.068 |
| NMTTNERRFIVPADPTLWTQEHVRQWLEWAIKEYSLMEIDTSFFQNMDGKELCKMNKEDFLRATTLYNTEVLLSHLSYLRES [V9F] | -0.018 ± 0.2 |
| NMTTNERRHIVPADPTLWTQEHVRQWLEWAIKEYSLMEIDTSFFQNMDGKELCKMNKEDFLRATTLYNTEVLLSHLSYLRES [V9H] | 0.099 ± 0.34 |
| NMTTNERRWIVPADPTLWTQEHVRQWLEWAIKEYSLMEIDTSFFQNMDGKELCKMNKEDFLRATTLYNTEVLLSHLSYLRES [V9W] | 0 ± 0.091 |

| Variant | abundance fitness |
| --- | --- |
| NMTTNERCVIVPADPTLWTQEHVRQWLEWAIKEYSLMEIDTSFFQNMDGKELCKMNKEDFLRATTLYNTEVLLSHLSYLRES [R8C] | -0.301 ± 0.26 |
| NMTTNERTVIVPADPTLWTQEHVRQWLEWAIKEYSLMEIDTSFFQNMDGKELCKMNKEDFLRATTLYNTEVLLSHLSYLRES [R8T] | -0.236 ± 0.14 |
| NMTTNERAVIVPADPTLWTQEHVRQWLEWAIKEYSLMEIDTSFFQNMDGKELCKMNKEDFLRATTLYNTEVLLSHLSYLRES [R8A] | -0.172 ± 0.099 |
| NMTTNERMVIVPADPTLWTQEHVRQWLEWAIKEYSLMEIDTSFFQNMDGKELCKMNKEDFLRATTLYNTEVLLSHLSYLRES [R8M] | -0.108 ± 0.1 |
| NMTTNERDVIVPADPTLWTQEHVRQWLEWAIKEYSLMEIDTSFFQNMDGKELCKMNKEDFLRATTLYNTEVLLSHLSYLRES [R8D] | 0.015 ± 0.2 |
| NMTTNERSVIVPADPTLWTQEHVRQWLEWAIKEYSLMEIDTSFFQNMDGKELCKMNKEDFLRATTLYNTEVLLSHLSYLRES [R8S] | -0.215 ± 0.09 |
| NMTTNEREVIVPADPTLWTQEHVRQWLEWAIKEYSLMEIDTSFFQNMDGKELCKMNKEDFLRATTLYNTEVLLSHLSYLRES [R8E] | 0.045 ± 0.13 |
| NMTTNERYVIVPADPTLWTQEHVRQWLEWAIKEYSLMEIDTSFFQNMDGKELCKMNKEDFLRATTLYNTEVLLSHLSYLRES [R8Y] | -0.403 ± 0.24 |
| NMTTNERFVIVPADPTLWTQEHVRQWLEWAIKEYSLMEIDTSFFQNMDGKELCKMNKEDFLRATTLYNTEVLLSHLSYLRES [R8F] | -0.174 ± 0.2 |
| NMTTNERQVIVPADPTLWTQEHVRQWLEWAIKEYSLMEIDTSFFQNMDGKELCKMNKEDFLRATTLYNTEVLLSHLSYLRES [R8Q] | -0.097 ± 0.11 |
| NMTTNERWVIVPADPTLWTQEHVRQWLEWAIKEYSLMEIDTSFFQNMDGKELCKMNKEDFLRATTLYNTEVLLSHLSYLRES [R8W] | -0.452 ± 0.18 |
| NMTTNERPVIVPADPTLWTQEHVRQWLEWAIKEYSLMEIDTSFFQNMDGKELCKMNKEDFLRATTLYNTEVLLSHLSYLRES [R8P] | -0.026 ± 0.12 |
| NMTTNERIVIVPADPTLWTQEHVRQWLEWAIKEYSLMEIDTSFFQNMDGKELCKMNKEDFLRATTLYNTEVLLSHLSYLRES [R8I] | -0.406 ± 0.21 |
| NMTTNERGVIVPADPTLWTQEHVRQWLEWAIKEYSLMEIDTSFFQNMDGKELCKMNKEDFLRATTLYNTEVLLSHLSYLRES [R8G] | -0.52 ± 0.12 |
| NMTTNERHVIVPADPTLWTQEHVRQWLEWAIKEYSLMEIDTSFFQNMDGKELCKMNKEDFLRATTLYNTEVLLSHLSYLRES [R8H] | -0.039 ± 0.14 |
| NMTTNERLVIVPADPTLWTQEHVRQWLEWAIKEYSLMEIDTSFFQNMDGKELCKMNKEDFLRATTLYNTEVLLSHLSYLRES [R8L] | -0.369 ± 0.1 |
| NMTTNERVVIVPADPTLWTQEHVRQWLEWAIKEYSLMEIDTSFFQNMDGKELCKMNKEDFLRATTLYNTEVLLSHLSYLRES [R8V] | -0.297 ± 0.14 |
